Experimental findings from patent publication US20250179180A1 are described below.

The target in this test is human CD3 (human) (UniProt P07766).
human CD3 (human), sequence (P07766 23-207 limits assumed, chain 1 of 2): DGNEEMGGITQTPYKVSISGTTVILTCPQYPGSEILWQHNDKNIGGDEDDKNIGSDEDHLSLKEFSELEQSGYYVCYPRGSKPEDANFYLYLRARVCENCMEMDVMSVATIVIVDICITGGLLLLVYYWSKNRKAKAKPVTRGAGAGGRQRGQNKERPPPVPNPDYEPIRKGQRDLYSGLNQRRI
human CD3 (human), sequence (chain, as listed by the source limits assumed, chain 2 of 2): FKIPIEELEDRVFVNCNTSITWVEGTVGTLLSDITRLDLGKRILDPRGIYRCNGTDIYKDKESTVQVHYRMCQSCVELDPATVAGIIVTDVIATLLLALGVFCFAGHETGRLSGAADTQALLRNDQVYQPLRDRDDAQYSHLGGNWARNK

Substance TNB-384B (bispecific antibody) registered a Kd of 30 nM.

Broadly, the Kd is the constant that tells how readily two partners part at equilibrium. A low value points to tighter binding.
